Measurements: patent publication US8916149B2, “Preventing and treating sepsis” (University of Rochester, priority 2008, dated 2014)

System: β1 and β3 integrin expressing HEK293T cells
Assay: Yeast surface display binding of mutant APCs on HEK293 cells
Parameters: species or system human
Excerpt: A broad-range of hosts and scaffolds based on ribosome display, phage display, and cell-surface display are used widely as systems to implement directed evolution (Hoogenboom, Nat. Biotechnol. 23:1105 (2005)). Among the cell surface display systems based on microbial and eukaryotic hosts, the yeast system offers the unique advantage of eukaryotic machinery that enables post-translational modification, glycosylation, and disulfide isomerization (Wittrup, Curr. Opin. Biotechnol. 12:392 (2001)). […] The yeast display system that was used employs the α-agglutinin yeast adhesion receptor to display recombinant proteins on cell surface of S. cerevisiae. The receptor consists of two proteins, Aga1 and Aga2 (FIG. 6). Aga1 is secreted and becomes covalently attached to β-glucan in the extracellular matrix of the yeast cell wall. Aga2 binds to Aga1 through two disulfide bonds, making it possible to express a protein of interest fused to Aga2.
Mixtures of 1 μg cDNA library and 0.5 μg of the Nhe1/BamH1 linearized pCTCON vector in 5 μl were transformed into 10^8 yeast cells by electroporation, which lead to ˜10^6 diversity in the library. Inside the cells, the cDNA library was recombined into the vector by the endogenous Gap repair protein. The yeast library of the human protein C was activated by thrombin. […]

B1: KR146/147GG+R177G: APC with combined substitutions K146G, R147G and R177G (protein)
chain: ANSFLEELRHSSLERECIEEICDFEEAKEIFQNVDDTLAFWSKHVDGDQCLVLPLEHPCASLCCGHGTCIDGIGSFSCDCRSGWEGRFCQREVSFLNCSLDNGGCTHYCLEEVGWRRCSCAPGYKLGDDLLQCHPAVKFPCGRPWGGMEKKRSHLKRDTEDQEDQVDPRLIDGKMTGRGDSPWQVVLLDSKKKLACGAVLIHPSWVLTAAHCMDESKKLLVRLGEYDLRRWEKWELDLDIKEVFVHPNYSKSTTDNDIALLHLAQPATLSQTIVPICLPDSGLAERELNQAGQETLVTGWGYHSSREKEAKRNRTFVLNFIKIPVVPHNECSEVMSNMVSENMLCAGILGDRQDACEGDSGGPMVASFHGTWFLVGLVSWGEGCGLLHNYGVYTKVSRYLDWIHGHIRDKEAPQKSWAP
B1 was tested. Which “binding of yeast expressing mutant APC on HEK293 cells compared to WT APC” value did it give?
The value was “further enhanced”.
